Substitutions are numbered along the chain they refer to.
Legend:
[1] = target: rat CCL20-secreted alkaline phosphatase (SEAP) fusion (rat, UniProt P97884 27-96; P05187 23-511); test: ELISA on CCL20-SEAP, Abs 450; x axis 'ug/ml' in 4-fold steps down from 10, taken as the antibody concentration as in FIG. 11C
recombinant human CXCL4 = target: T1, recombinant human CXCL4 (human, UniProt P02776 32-101); test: ELISA, plate-bound chemokine (1 ug/ml), antibody 10 ug/ml, OD450
T1 construct: also called PF4
T1 sequence (looked up): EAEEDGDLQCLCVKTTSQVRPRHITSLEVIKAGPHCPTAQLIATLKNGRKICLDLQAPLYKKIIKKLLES
In short: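 Wells coated overnight at 4 °C with 1 μg/ml recombinant human chemokine in PBS, blocked 1 h, then incubated 1 h at room temperature with antibodies at 10 μg/ml in 0.02% Tween 20/PBS. TMB development 15–30 min, stopped with 2 M H2SO4, OD read at 450 nm.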

recombinant human CCL16 = target: T2, recombinant human CCL16 (human, UniProt O15467 24-120); test: SPR (Biacore): antibody captured on anti-human Fc, 100 nM chemokine injected
T2 construct: also called HCC-4
T2 sequence (looked up): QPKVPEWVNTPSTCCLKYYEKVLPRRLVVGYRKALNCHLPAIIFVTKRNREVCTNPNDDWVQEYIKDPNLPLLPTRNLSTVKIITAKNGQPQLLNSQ
Procedure: We used Biacore™ analysis to test whether HC2/LK3 and HC2/LC3 cross-react with CCL16. Monoclonal mouse anti-human Fc was immobilized on all four flow cells of a CM5 chip at a flow rate of 25 μl/min with HBS-EP buffer containing 0.2 mg/mL BSA. Subsequently, 50 μl of a 1 μg/ml solution of chimeric, HC2/LC3, or HC2/LK3 antibody in HBS-EP buffer with 0.2 mg/ml BSA was injected over flow cells 2, 3, and 4, respectively. 150 μl of a 100 nM solution of CCL20 or CCL16 in HBS-EP buffer (or buffer alone) with 0.2 mg/ml BSA was then injected over all four flow cells at a flow rate of 40 μl/min. Dissociation followed for 20 min. Flow cell 1 (anti-human Fc antibody alone) was used as a reference for all flow cells.
Under these conditions, human CCL20 bound to the chimeric (FIG. 13A), HC2/LC3 (FIG. 13B), and HC2/LK3 (FIG. 13B) antibodies captured on the chip with similar strength.

[2] = target: T3, human CCL20-secreted alkaline phosphatase (SEAP) fusion (human, UniProt P78556 27-96); test: ELISA (fluorescent HRP substrate): CCL20-SEAP captured on anti-alkaline phosphatase in 5-fold dilutions from 20 nM (x axis, nM), antibody at 1 ug/ml
T3 construct: also called hCCL20; human CCL20-SEAP; not shown: secreted alkaline phosphatase (SEAP), cDNA from pSEAP-Enhancer vector (Clontech)
Procedure: (§1) To test whether the chimeric and humanized antibodies can bind to mouse, cynomolgus, or rhesus macaque CCL20 orthologs, we used ELISA assays as illustrated in FIG. 15. Recombinant secreted alkaline phosphatase (SEAP)-chemokine fusion proteins were engineered as described in Example 2, expressed and purified for all of the CCL20 orthologs tested. Nunc MaxiSorb flat-bottom black plates were coated with 1 μg/ml mouse anti-placental alkaline phosphatase antibody (Pierce, cat# MA1-19354) in 50 mM sodium bicarbonate, pH 9.4, overnight at 4° C. Plates were then blocked using 1× phosphate buffered saline with Tween-20 (PBST) with 5% bovine serum albumin (BSA) for 2 hours at room temperature. 20 nM SEAP-CCL20 fusion proteins were serially diluted 5-fold in Opti-MEM medium (Invitrogen). Chimeric and humanized (HC2/LC3 and HC2/LK3) antibodies were diluted to 1 μg/ml in 1×PBST with 5% BSA, added to the plates, and incubated for 1 hr at room temperature. The plates were then washed with 1×PBST with 5% BSA three times. […] QuantaBlu fluorescent HRP substrate (Pierce cat#15169) was added for detection of bound antibody by measuring fluorescence in a Molecular Devices M5 (Excitation 325 nm/Emission 420 nm) plate reader.
(§2) While the hamster anti-mouse CCL20 antibody 2F5-5 MAb bound mouse CCL20 with a 50% effective dose (EC₅₀) of 64 pM (data not shown), neither the chimeric nor humanized anti-human CCL20 antibodies bound detectably to mouse CCL20 or rat CCL20 under the conditions described above. By contrast, both the chimeric and humanized antibodies effectively bound to human, rhesus, and cynomolgus CCL20 (FIGS. 16A-C, 17A and B).

[3] = target: T4, rhesus CCL20-secreted alkaline phosphatase (SEAP) fusion (rhesus monkey); test: as above
T4 construct: also called rCCL20; rhesus CCL20-SEAP; not shown: the SEAP reporter (cDNA from Clontech pSEAP-Enhancer) and its junction to CCL20
T4 chain: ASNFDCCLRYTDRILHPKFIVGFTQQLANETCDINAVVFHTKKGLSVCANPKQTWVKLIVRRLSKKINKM
Procedure: as §1, §2

[4] = target: T5, cynomolgus CCL20-secreted alkaline phosphatase (SEAP) fusion (cynomolgus monkey); test: as above
T5 construct: also called cCCL20; cynomolgus CCL20-SEAP; not shown: the SEAP reporter (cDNA from Clontech pSEAP-Enhancer) and its junction to CCL20
T5 chain: T4 chain with V38I
Procedure: as §1, §2

[5] = target: T3, human CCL20-secreted alkaline …; test: ELISA, serially diluted CCL20-SEAP captured by anti-alkaline phosphatase antibody, antibody at 1 µg/ml; human CCL20-SEAP
Procedure: as §1, with “reader. […]” for “reader.”

[6] = target: T5, cynomolgus CCL20-secreted alkaline …; test: ELISA, serially diluted CCL20-SEAP captured by anti-alkaline phosphatase antibody, antibody at 1 µg/ml
Procedure: as §1, with “reader. […]” for “reader.”

T3 sequence (P78556 27-96): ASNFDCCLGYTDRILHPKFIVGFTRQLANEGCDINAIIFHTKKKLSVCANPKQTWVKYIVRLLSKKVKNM
Sequence of rat CCL20-secreted alkaline phosphatase (SEAP) fusion (P97884 other isoform, or with tags, fused parts or gaps): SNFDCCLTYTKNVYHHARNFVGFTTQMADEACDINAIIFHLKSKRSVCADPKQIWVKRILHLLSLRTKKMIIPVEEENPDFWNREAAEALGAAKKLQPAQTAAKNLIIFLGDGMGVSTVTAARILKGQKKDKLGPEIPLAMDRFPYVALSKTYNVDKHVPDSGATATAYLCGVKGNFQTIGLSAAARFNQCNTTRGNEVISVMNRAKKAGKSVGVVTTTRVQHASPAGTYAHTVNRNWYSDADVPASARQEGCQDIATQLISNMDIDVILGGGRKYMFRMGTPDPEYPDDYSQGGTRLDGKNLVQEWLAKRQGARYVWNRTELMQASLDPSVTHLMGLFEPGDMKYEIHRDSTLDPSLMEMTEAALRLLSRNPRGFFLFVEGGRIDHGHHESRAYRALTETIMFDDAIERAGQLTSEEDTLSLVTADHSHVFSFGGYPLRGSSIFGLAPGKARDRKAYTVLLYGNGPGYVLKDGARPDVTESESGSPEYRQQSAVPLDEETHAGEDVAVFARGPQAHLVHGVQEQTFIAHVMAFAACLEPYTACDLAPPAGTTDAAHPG

B1: mouse anti-human CCL20 monoclonal antibody 36F7C10 (antibody, V domains shown)
VH: QVQLQQPGAELVKPGASVKMSCKASGYTFTNYWMHWVKQRPGQGLEWIGVIDPSDSYTTYNQKFKGKATLTVDTSSSTAYMQLSSLTSEDSAVYYCTRGNYGVDYAMDYWGQGTSVTVSS
VL: DIQMTQSPASLSASVGETVTITCGASENIYGALNWYQRKQGKSPQLLIYGATNLADGMSSRFSGSGSGRQYSLKISSLHPDDVATYYCQNVLITPYTFGGGTKLEIK
notes: Mouse hybridoma antibody; also called MouseMAb; parental mouse clone 36F7C10
- binding result [1]: no binding (tested: 10 ug/ml)
- binding result (recombinant human CXCL4): no binding (tested: 10 ug/ml)

B2: chimeric 36F7C10 antibody (36F7C10-hFc) (antibody, V domains shown)
VH: B1 VH
VL: B1 VL
notes: also called chimeric 36F710; Chimeric MAb
- binding result [1]: no binding (tested: 10 ug/ml)
- binding result (recombinant human CCL16): no binding (tested: 100 nM)
- EC50 [2]: 33.6 pM
- EC50 [3]: 49.8 pM
- EC50 [4]: 101 pM

B3: humanized anti-human CCL20 antibody 36LK3/36HC2 (antibody, human IgG1, kappa, V domains shown)
VH: QVQLVQSGAEVKKPGASVKVSCKASGYTFTNYWMHWVRQAPGQGLEWMGVIDPSDSYTTYAQKFQGRVTMTVDTSTSTVYMELSSLRSEDTAVYYCARGNYGVDYAMDYWGQGTLVTVSS
VL: DIQMTQSPSSLSASVGDRVTITCGASENIYGALNWYQRKPGKAPKLLIYGATNLADGVPSRFSGSGSGRDYTLTISSLQPEDFATYYCQNVLITPYTFGQGTKLEIKR
notes: expressed in HEK293 cells; also called HC2/LK3; HC2LK3
- binding result (recombinant human CCL16): no binding (tested: 100 nM)
- EC50 [2]: 45.9 pM
- EC50 [3]: 62.9 pM
- EC50 [4]: 162 pM

B4: humanized anti-human CCL20 antibody 36LC3/36HC2 (antibody, human IgG1, kappa, V domains shown)
VH: B3 VH
VL: B3 VL with G24R, R38Q, D70Q, T72S, Q100G
notes: expressed in HEK293 cells; also called HC2/LC3; HC2LC3
- EC50 [5]: 62 pM
- fold difference of EC50 versus human CCL20 [6]: 5.4 fold
